Publication PMC10352132 (Nature Structural & Molecular Biology, 2023)

Target: wild-type Rattus norvegicus GABA transporter 1 (rGAT1WT) (Rattus norvegicus, UniProt P23978)
Details: one partner purified

B1: Fab 9D5 (Fab, V domains shown)
VH: EVQLVESGGGLVKPGGSLKLSCAASGFTFSSYAMSWVRQSPEKRLEWVAEISSGGRYIYYSDTVTGRFTISRDNARNILHLEMSSLRSEDTAMYYCARGEVRQRGFDYWGQGTTLTVSS
VL: ENVLTQSPAIMSTSPGEKVTMTCRASSSVGSSYLHWYQQKSGASPKLWIYSTSNLASGVPARFSGSGSGTSYSLTISSVEAEDAATYYCQQFSGYPLTFGSGTKLEMK
notes: heavy chain of Fab 9D5; light chain of Fab 9D5; Heavy and light chains were synthesized and cloned into pFastBac Dual with an N-terminal GP64 signal peptide; Only VH and VL are modeled in PDB 8GNK; also called 9D5 Fab; 9D5-Fab; source: Sf9 cells, baculovirus, exported into the media; purified (Ni-NTA, SEC on Superdex 75)
binding result: no binding (tested: 50 ng of 9D5)
